From publication PMC2064659 (The Journal of Cell Biology, 2007)

Molecular target: T1, GST-SH3^SGEF (amino acids 789–850) (UniProt Q96DR7 789-850)
T1 sequence (looked up): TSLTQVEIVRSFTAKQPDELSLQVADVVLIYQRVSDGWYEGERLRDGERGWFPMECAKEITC
Experiment: pull-down

binding result: binds
B1: ICAM1–intracellular tail peptide, biotinylated (peptide)
peptide: GRQRKIKKYRLQQAQKGTPMKPNTQATPP
HELM: PEPTIDE1{[O=C1N[C@H]2[C@H](CS[C@H]2CCCCC(=O)[*:2])N1].G.R.Q.R.K.I.K.K.Y.R.L.Q.Q.A.Q.K.G.T.P.M.K.P.N.T.Q.A.T.P.P}$$$$V2.0
SMILES: CC[C@H](C)[C@H](NC(=O)[C@H](CCCCN)NC(=O)[C@H](CCCNC(=N)N)NC(=O)[C@H](CCC(N)=O)NC(=O)[C@H](CCCNC(=N)N)NC(=O)CNC(=O)CCCC[C@@H]1SC[C@@H]2NC(=O)N[C@@H]21)C(=O)N[C@@H](CCCCN)C(=O)N[C@@H](CCCCN)C(=O)N[C@@H](Cc1ccc(O)cc1)C(=O)N[C@@H](CCCNC(=N)N)C(=O)N[C@@H](CC(C)C)C(=O)N[C@@H](CCC(N)=O)C(=O)N[C@@H](CCC(N)=O)C(=O)N[C@@H](C)C(=O)N[C@@H](CCC(N)=O)C(=O)N[C@@H](CCCCN)C(=O)NCC(=O)N[C@H](C(=O)N1CCC[C@H]1C(=O)N[C@@H](CCSC)C(=O)N[C@@H](CCCCN)C(=O)N1CCC[C@H]1C(=O)N[C@@H](CC(N)=O)C(=O)N[C@H](C(=O)N[C@@H](CCC(N)=O)C(=O)N[C@@H](C)C(=O)N[C@H](C(=O)N1CCC[C@H]1C(=O)N1CCC[C@H]1C(=O)O)[C@@H](C)O)[C@@H](C)O)[C@@H](C)O
